Test results: the supplement of paper PMC12042874
± gives the uncertainty stated by the source.

Assay: amyloid nucleation score (Sup35N fusion, yeast selection) (log enrichment); library NNK1; higher = more nucleation; inactive = no reads after selection
Outline: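 After 24 hours of induction with 100 μM copper sulfate, psi-negative yeast expressing peptides of 20 random codons fused to Sup35N were grown for 7 days at 30°C on medium lacking adenine and uracil. Input and output plasmid inserts were sequenced with Illumina, and sequences with under 100 input reads were discarded. Scores for nucleation are the DiMSum log enrichment of output over input reads, centred on the mode score of non-aggregating sequences.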

Substance	amyloid nucleation score
PGSGCNVFKL	-0.403 ± 0.25
PHAHDTWYGYA	-1.13 ± 2.4
PHVFRFSFPTLILIGSFNFC	3.14 ± 0.12
PIDAPISQLGLCMFGYQEGL	-0.999 ± 1.3
PIFMCHSFFQAIICWLSSHL	inactive
PIKAPLGASCGFAVRVTRTM	0.391 ± 0.46
PKARYRFSWLTRYNLNNRRE	-0.608 ± 0.52
PKATRIALPFFLGLCFSMCL	-0.143 ± 0.38
PKGIGGGCARTYRHRVRGSR	0.184 ± 0.64
PKNKAAVKNSMALPIARQ	-0.192 ± 0.73
PLAPMFRLWENSVRYIAKLW	1.22 ± 0.64
PLAVVVYDNHRRMGHHVRHG	0.807 ± 0.63
PLCSNRIERMLLSVGCGRRR	-0.416 ± 0.44
PLFLYRFCKMVPVCILRIGW	0.415 ± 0.3
PLKHVRQDWCTKLICNSGNY	-0.357 ± 0.43
PLLERHVAGLCGFFF	-0.908 ± 1.2
PLSRVLGYVFIISRRTNRIL	-0.206 ± 0.28
PLTGAGFTIEML	-0.132 ± 0.36
PMICFGWALIRYVTFQDLPV	0.276 ± 0.45
PMNNIVFYGGYLISAFRVRL	6.46 ± 0.089
PMNYGSSNA	-0.224 ± 1.7
PMSLPTYLRIPRFVLLAWAE	-0.034 ± 0.39
PMVIKVLVGCRGYSDLNLYW	4.9 ± 0.079
PNLMLAFVL	1.14 ± 0.41
PNMARHPFYEDMCFTVDVTN	-1 ± 0.44

Substance	amyloid nucleation score
PNRSLCTVNMCIYVETGFMV	inactive
PNYDVMSLYRTNYGNYSHSV	0.471 ± 0.38
PPTGTLSRHVRSSVQGMGVA	inactive
PQQEGISLSDALPLPEEGRV	0.535 ± 0.4
PRCFYLMSGEMISTYECKRT	1.05 ± 0.39
PRMFIWMCDRDDVSMYQEFL	0.48 ± 0.55
PRRSY	1.41 ± 0.84
PRSANCMCDYDRTAM	0.316 ± 0.34
PRTLPVLFNLSLKGSSHTYF	4.52 ± 0.064
PRYRASVYYKDTRVLLLF	0.512 ± 0.36
PSALGMVNGYIRVIYKRR	0.359 ± 0.53
PSILTVCLRV	0.188 ± 0.41
PSLLWAFTLS	0.5 ± 0.42
PSQRNKIPGMLSLYY	-0.193 ± 0.57
PSTVCMFPRWLAVVRLVLQT	0.79 ± 0.35
PSVTVYIYNLSSIFYGIRDL	6.71 ± 0.075
PSYIHMVSGRFSFSSPRGQK	0.029 ± 0.49
PTEKYAESLMERTYFRAEMK	0.315 ± 0.34
PTVYSDYTCSTFMWISD	0.299 ± 0.6
PTWSWWGSWHLGSMPGDNRR	0.237 ± 0.78
PVCWSHFYFRVDVFYEWGRV	-0.274 ± 0.39
PVGWGNTACSLRCTGHVSYV	-0.604 ± 1.7
PVKVWARTVQSVAWLFSCG	-0.016 ± 1.4
PVLLRSIIF	-0.346 ± 0.36
PVLWT	-0.002 ± 0.53

Substance	amyloid nucleation score
PVRQLERSNRLLKQGRRPLG	0.512 ± 0.49
PVTSTIHRHPFFHVTTGDRM	-1.32 ± 0.94
PVVDKLSDVHVM	-0.262 ± 0.31
PVVPCYPRLKVCTGRRTAGA	0.684 ± 0.55
PWASNIAFLNFPTCTDCDG	2.09 ± 0.28
PWLKVQFVKREVTIDFRVRV	inactive
PWYTSLEIKRSEETCKAMPF	0.302 ± 0.41
PWYVIKV	-0.055 ± 0.31
PYFLNCRPLRA	0.815 ± 0.52
PYFVIKSRWGQNRS	inactive
PYHIKLLQR	1.44 ± 0.18
PYYHHVGVGYAFYVICVRAF	inactive
QAFFVFC	1.3 ± 0.36
QAKPIIGRRTPLNDFNSPLY	0.15 ± 0.37
QASIYCIIRE	0.68 ± 0.43
QASSGIDVNHFYAVNLTSML	0.487 ± 0.97
QAVRIVGERLAFFGN	0.607 ± 0.65
QCAWCTRSVNNMYQTLEYHI	6.151 ± 0.049
QCLRWDPGI	1 ± 0.51
QDAIMFGSDPLFYILLGLWG	inactive
QDFVMSYLCRLKGWLDKRYR	0.472 ± 0.25
QDIQSISWHAFVVESFKSEK	-0.094 ± 0.32
QDRENLNCIHY	1.24 ± 0.31
QDVKSMCQPFMILMVVSGGL	-0.101 ± 0.65
QFDCPEHKRIHYRGPHPKRK	-0.356 ± 0.33

Substance	amyloid nucleation score
QFEDLHQLYSMCALPDSTKH	-0.366 ± 0.93
QFGWFWFLNYALQDFDN	-0.696 ± 0.75
QFILRDNVVRRMKFRGVPNF	2.22 ± 0.55
QFKRKIICQDKSVAFKCNYR	-0.493 ± 0.22
QFSHCWMSRRSGVNSAGRSG	-0.238 ± 0.39
QFSHNRIMLDQTWKNVVKGL	-0.001 ± 0.37
QFVHGRNETIRSFNCPGLAE	-0.007 ± 1.2
QFYVSVFEIYSLLTRKCACR	inactive
QGGRVDGSPPTVYA	0.555 ± 0.46
QGHCGTYHSGGSVNRLPHGV	0.209 ± 0.39
QGIYTD	-0.921 ± 0.78
QGLADNKSSFKGV	0.591 ± 1
QGSVSRCISEALTVRCYRTG	inactive
QIINKFTSDIVLTD	0.456 ± 0.38
QIIWVIRFLLVCVFTLSKLV	inactive
QKAAVEQGLSRFGEGVTP	0.886 ± 0.66
QKKSLVRGKGES	-0.145 ± 0.48
QKLLTSMSVITW	1.81 ± 0.65
QKLVDLTIRWGYRPLGRCWW	0.622 ± 0.97
QLKCPKNDHVIVWDFCINQL	2.28 ± 0.32
QLRHLHSNVLLRDIWLGFKF	-1.01 ± 1.7
QLSFYSFCPMATYRSSNSDL	5.92 ± 0.053
QLTPTLCDRSRCCPGGLFVY	0.631 ± 0.58
QMGELSSYRLFGIRTFRF	-0.02 ± 0.81
QMRAFSDLFLLSDY	0.406 ± 0.46

Substance	amyloid nucleation score
QNDTYLI	0.022 ± 1.1
QNLVLVKPEVFGTSRLLCGH	0.184 ± 0.53
QNPWNGILLAKNWRDKMLRN	0.3 ± 0.52
QRLGQGIGGEWPTKL	0.995 ± 0.67
QRMLHAYLCVNWAELTHIRV	0.034 ± 0.6
QRPLCENRLDYKLGYSTMTF	-0.646 ± 1.6
QRVSIRFSVPRGL	0.312 ± 0.31
QSGPSAVY	0.362 ± 0.64
QSLDE	-0.44 ± 0.28
QSMSCRAFVVTSRLVHWGTQ	-0.438 ± 0.6
QSSLGNLTCANFWVTTTEVG	inactive
QSSSYERLKQTGKLSFYIDF	-0.069 ± 0.61
QSTLGGSKHAWLIENGGFGF	-0.685 ± 1.1
QSVHDTHSCHGSH	0.5 ± 0.63
QTEQMFGRVDIVYLPAIWSS	0.447 ± 0.45
QTRVCTNDKSSFTLQTGRW	3.26 ± 0.14
QTSLMMWLRR	inactive
QTTFGLMIFT	0.89 ± 0.93
QVALYKVVVYKTWDVGFPSC	0.988 ± 0.9
QVFATRDAQRYLLMHRIDHN	-0.153 ± 1.7
QVHIERDVERPYMFLGTAWG	-0.285 ± 0.34
QVIEKFVAGCEGQKR	2.31 ± 0.14
QVKDIGLPMHHACF	-1.36 ± 1.1
QVRLKEFLYSLKCDVRYGST	inactive
QVTVRM	0.987 ± 0.24

Substance	amyloid nucleation score
QWAFYVNYLTSRDYFNIFTR	1.05 ± 0.16
QWCSRRDMCFRSSVILCLWR	-0.035 ± 0.75
QWGTREYGIFLDIFVHVTVN	0.237 ± 0.56
QYCIHNNFEYDGL	-0.98 ± 0.47
QYCKFPNIRRLRINK	-0.393 ± 0.36
QYEALLPLTKKNRTNTWQRQ	inactive
QYIVW	0.142 ± 0.32
QYNSGLDRMA	1.14 ± 0.62
QYWVCNKPTLVDYRDTCDRT	0.023 ± 0.89
QYYFLLYAKSDLSKWEHHQD	-0.282 ± 0.97
RAAYACWHFTLYNFSLIVTT	1.83 ± 0.57
RAGCPDVGRRLSCSRSVLPR	0.789 ± 0.27
RAKICFVRQGRGFIMHRLLA	1.39 ± 0.23
RAKTWDGRGAKQP	1.22 ± 0.64
RALSH	-0.158 ± 0.74
RARCAVGS	-0.396 ± 1.5
RASFIELVTEKRHPSHTPGK	-0.473 ± 0.39
RAVLSTSELGLPTV	0.27 ± 0.89
RCCALTYPLFKHLG	0.573 ± 0.43
RCDLARVLLMGRWLGPNAVW	-0.359 ± 0.67
RCDYVEWIWYPCYRRNGVCR	0.171 ± 0.39
RCFECEGALV	-0.08 ± 1.1
RCFMFSTGEALTNEDRSLRR	1.12 ± 0.6
RCKLLIIVIRKDTCLKYCGH	0.308 ± 0.32
RCLEGLSIMLNDFLPPCGP	-0.224 ± 0.71

Substance	amyloid nucleation score
RCMLGLLNFIESIHGGR	4.89 ± 0.095
RCMSDFRPVWVYVS	-0.222 ± 0.86
RCPYSYHGYSVNNWGSAWT	0.487 ± 0.54
RCRAVELLEVRRLQMRSGHH	-0.295 ± 0.34
RCSFFSYCVNDAS	3.55 ± 0.12
RCTLISRHDWGYANWMRLLL	4.81 ± 0.077
RDKMDDWFQRHMESGTRTRE	0.053 ± 0.23
RDSITITVNCT	2.44 ± 0.078
RDSLSSVSA	-0.382 ± 0.62
RDSRDLMCFVRLPLDRISK	-0.101 ± 0.39
RDVAMESRVSGYVGVCGSYR	-0.71 ± 1.2
RDVDRGMHQMAPSTGVRLVL	2.81 ± 0.14
RDYSFGGLMPGCDGEHIVS	-0.138 ± 0.4
REPVCICLIAAYGRAKPPTG	0.382 ± 0.84
REWIYLVVETPCYFVDDVMD	-0.71 ± 0.52
RFCLAVGLRMGYFLGCSDFR	-0.45 ± 1.4
RFEIIYGWSTYVLDAGVSFQ	1.21 ± 0.13
RFFMTHSYELYLEFRGAARR	1.28 ± 0.42
RFLPVLVSIINKRQGGYDF	0.064 ± 0.46
RFMYAISSVTRYPMWPGMMQ	2.45 ± 0.18
